For test [1], the target named is α11β1 on CHO-K1 cells stably expressing human α11 (CHO-K1 hu α11) (human, UniProt Q9UKX5 23-1188). The experiment in a line: cell-based or functional assay.
Test [2] deals with T1, recombinant human integrin alpha 11 beta 1 (α11β1) (human, UniProt Q9UKX5 23-1141; P05556 21-728).
T1 construct: Coated in ELISA; also called human α11β1; soluble human α11β1
In words: SPR (Biacore T200), HIS-tagged human α11β1 captured by anti-HIS antibody, single-cycle kinetics, 1:1 Langmuir fit. The procedure: The affinity of antibodies for human α11β1 was measured by surface plasmon resonance assay (SPR). Affinity was measured at pH 7.6 and 25° C. with a Biacore T200 instrument. Anti-HIS antibody was immobilized on the SPR sensor surface using EDC/NHS covalent attachment. HIS-tagged human α11β1 was captured on the sensor surface and a single-cycle kinetics assay was used. Increasing concentrations of test antibody were injected in series over the sensor-bound α11β1. Dissociation was monitored for 1000 seconds. A sensor surface with only anti-HIS antibody and a series of blank injections were used to double-reference subtract the data. A 1:1 Langmuir model was fit to the data to estimate the kinetic association and dissociation constants. The affinity (equilibrium dissociation constant) of the interaction was calculated by dividing the kinetic dissociation constant by the kinetic association constant. Between injection cycles α11β1 and bound antibody were removed with an injection of 10 mM glycine at pH 1.5.
The binding affinity of antibodies for the α11β1 Headpiece and α11β1 I Domain as measured by SPR is shown in FIG. 10A and FIG. 10B, respectively.
For orientation: In SPR one partner is held on a chip, and binding of the other changes the refractive index at the surface.

In test [3] the target is T2, α11β1 on human myofibroblasts (MF) (human, UniProt Q9UKX5 23-1188; P05556 21-798).
T2 construct: whole, on cells; Human pulmonary fibroblasts treated with TGFβ
T2 sequence (Q9UKX5 23-1188, chain 1 of 2): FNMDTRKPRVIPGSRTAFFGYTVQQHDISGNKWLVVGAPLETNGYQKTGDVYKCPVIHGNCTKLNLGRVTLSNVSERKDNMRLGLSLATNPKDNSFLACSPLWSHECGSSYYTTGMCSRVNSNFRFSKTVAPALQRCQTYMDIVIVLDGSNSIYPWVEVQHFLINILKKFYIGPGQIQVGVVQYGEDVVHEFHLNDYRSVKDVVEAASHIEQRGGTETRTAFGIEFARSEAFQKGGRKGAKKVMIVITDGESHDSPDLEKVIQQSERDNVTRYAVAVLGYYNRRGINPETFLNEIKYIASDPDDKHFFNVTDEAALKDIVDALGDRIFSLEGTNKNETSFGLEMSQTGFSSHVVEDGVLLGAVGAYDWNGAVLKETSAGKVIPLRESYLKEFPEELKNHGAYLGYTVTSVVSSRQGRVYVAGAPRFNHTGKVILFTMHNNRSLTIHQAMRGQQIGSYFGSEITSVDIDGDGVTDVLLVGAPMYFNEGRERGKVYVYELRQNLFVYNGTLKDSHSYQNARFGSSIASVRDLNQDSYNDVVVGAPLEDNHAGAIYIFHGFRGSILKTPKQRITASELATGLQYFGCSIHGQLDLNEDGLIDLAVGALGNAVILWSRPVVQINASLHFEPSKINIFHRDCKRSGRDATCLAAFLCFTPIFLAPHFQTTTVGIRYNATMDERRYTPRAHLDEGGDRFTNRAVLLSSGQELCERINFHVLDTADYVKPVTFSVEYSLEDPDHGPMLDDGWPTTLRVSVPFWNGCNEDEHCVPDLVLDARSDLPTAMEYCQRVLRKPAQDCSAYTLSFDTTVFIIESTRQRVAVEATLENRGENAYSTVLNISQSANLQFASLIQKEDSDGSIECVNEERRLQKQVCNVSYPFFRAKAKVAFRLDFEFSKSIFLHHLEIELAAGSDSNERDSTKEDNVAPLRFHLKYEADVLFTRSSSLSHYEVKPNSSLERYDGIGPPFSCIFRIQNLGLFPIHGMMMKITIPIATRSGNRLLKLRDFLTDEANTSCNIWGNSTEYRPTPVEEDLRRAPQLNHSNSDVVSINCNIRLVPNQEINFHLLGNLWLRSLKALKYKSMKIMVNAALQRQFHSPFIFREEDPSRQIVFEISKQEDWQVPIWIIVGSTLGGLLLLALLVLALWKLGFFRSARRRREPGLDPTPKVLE
T2 sequence (P05556 21-798, chain 2 of 2): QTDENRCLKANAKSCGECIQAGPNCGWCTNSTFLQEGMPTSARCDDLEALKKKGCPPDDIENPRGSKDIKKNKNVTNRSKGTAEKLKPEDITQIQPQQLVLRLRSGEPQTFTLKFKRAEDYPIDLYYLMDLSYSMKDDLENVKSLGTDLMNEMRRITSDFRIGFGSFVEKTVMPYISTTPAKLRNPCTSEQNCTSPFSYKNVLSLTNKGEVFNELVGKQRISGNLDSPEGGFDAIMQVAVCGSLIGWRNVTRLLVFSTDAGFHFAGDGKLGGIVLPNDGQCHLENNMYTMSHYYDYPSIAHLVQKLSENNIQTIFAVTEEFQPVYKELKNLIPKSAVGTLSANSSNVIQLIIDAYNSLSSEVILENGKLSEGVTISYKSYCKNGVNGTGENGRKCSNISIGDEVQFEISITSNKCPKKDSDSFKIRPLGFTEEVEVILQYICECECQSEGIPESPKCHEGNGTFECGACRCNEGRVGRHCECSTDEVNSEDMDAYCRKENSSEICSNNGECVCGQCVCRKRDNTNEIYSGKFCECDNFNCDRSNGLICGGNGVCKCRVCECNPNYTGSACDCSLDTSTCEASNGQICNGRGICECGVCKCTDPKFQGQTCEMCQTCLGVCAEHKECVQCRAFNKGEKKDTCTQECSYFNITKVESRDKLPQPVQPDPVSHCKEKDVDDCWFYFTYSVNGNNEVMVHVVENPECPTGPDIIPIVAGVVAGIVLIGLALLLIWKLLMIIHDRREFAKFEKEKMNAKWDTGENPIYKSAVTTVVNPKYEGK
The experiment in a line: FACS (PE) on human myofibroblasts, histogram.

The target of test [4] is T1, recombinant human integrin alpha 11 …. In words: ELISA on plate-coated recombinant human α11β1, OD 450nm. Here is the method: 0.25 μg/mL of target antigen (recombinant human or mouse α11β1) was plated in a 96-well plate over night at 4° C. Plates were washed (PBS with 0.1% Tween-20), blocked (PBS with 2% BSA and 0.05% Tween-20) for 1 hour at room temperature and incubated with a range of antibody concentrations for 1 hour at room temperature. Subsequently, plates were washed and incubated with biotinylated anti-rabbit/mouse/human IgG in a 1:1000 dilution buffer and incubated for 1 hour at room temperature. After washing the plates, Streptavidin HRP was added at 1:200 in dilution buffer and incubated for 1 hour at room temperature. Ultra TMB ELISA substrate solution was added and the plates incubated for 5 minutes on a plate shaker. The reaction was stopped by adding stop solution to each well and plates were read at 450 nm.

T1 sequence (Q9UKX5 23-1141 limits assumed, chain 1 of 2): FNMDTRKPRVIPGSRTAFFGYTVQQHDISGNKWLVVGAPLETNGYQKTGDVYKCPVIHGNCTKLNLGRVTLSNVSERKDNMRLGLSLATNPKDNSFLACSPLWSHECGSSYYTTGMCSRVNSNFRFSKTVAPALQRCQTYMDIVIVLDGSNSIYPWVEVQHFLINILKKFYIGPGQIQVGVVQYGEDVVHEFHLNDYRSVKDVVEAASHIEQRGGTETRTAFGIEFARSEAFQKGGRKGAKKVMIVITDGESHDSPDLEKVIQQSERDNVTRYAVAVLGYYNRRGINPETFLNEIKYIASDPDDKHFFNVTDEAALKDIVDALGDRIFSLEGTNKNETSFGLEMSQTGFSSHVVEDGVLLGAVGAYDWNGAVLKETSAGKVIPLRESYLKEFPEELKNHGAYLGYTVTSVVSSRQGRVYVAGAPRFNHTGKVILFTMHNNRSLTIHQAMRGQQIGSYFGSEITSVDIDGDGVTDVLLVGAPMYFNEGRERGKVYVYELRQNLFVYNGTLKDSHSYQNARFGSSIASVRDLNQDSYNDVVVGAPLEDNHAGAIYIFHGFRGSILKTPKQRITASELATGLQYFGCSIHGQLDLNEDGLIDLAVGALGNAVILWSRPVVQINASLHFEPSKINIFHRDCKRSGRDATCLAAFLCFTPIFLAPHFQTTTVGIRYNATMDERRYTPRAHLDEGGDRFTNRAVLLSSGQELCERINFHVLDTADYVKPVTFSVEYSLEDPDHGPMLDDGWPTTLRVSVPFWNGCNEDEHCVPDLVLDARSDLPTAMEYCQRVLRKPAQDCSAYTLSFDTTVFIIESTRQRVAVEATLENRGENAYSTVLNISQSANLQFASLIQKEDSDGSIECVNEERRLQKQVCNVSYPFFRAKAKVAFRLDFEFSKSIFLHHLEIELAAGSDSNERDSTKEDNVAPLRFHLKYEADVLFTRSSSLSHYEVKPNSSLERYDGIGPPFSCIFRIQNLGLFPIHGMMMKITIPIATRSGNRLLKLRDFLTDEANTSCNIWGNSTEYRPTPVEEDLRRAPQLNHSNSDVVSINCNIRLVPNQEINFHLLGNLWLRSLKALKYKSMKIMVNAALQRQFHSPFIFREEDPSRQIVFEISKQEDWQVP
T1 sequence (P05556 21-728 limits assumed, chain 2 of 2): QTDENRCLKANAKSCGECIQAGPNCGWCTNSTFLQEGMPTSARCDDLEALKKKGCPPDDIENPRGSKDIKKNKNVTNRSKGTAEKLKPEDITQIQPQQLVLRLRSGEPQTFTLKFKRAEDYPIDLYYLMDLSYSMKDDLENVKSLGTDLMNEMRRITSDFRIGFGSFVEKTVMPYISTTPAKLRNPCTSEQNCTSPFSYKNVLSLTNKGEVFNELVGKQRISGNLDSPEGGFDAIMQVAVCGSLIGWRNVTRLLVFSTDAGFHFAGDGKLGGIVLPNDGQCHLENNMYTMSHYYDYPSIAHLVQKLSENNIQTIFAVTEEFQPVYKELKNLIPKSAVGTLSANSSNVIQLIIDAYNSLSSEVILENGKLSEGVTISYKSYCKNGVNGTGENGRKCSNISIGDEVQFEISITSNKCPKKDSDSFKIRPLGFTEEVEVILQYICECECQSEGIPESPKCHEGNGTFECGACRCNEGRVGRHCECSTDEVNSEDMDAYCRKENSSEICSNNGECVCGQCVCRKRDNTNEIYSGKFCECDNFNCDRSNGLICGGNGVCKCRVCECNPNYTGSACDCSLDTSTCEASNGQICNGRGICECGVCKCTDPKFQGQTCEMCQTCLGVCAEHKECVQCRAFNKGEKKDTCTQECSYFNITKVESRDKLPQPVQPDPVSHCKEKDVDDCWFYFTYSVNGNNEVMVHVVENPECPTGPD
α11β1 on CHO-K1 cells stably expressing human α11 (CHO-K1 hu α11), sequence (Q9UKX5 23-1188): as the sequence (Q9UKX5 23-1188, chain 1 of 2) above

B1: A11B1_16E10 (antibody, V domains shown)
VH: QSLEESGGDLVKPGASLTLTCRVSGFSFSSSYYMCWVRQAPGKGLEWIACIGTTRGSTYYATWAKGRFTISKISSTTVTLQMTSLTDADTATYFCARDATGYRINTIGLYFNLWGPGTLVTVSS
VL: AFELTQTPSSVEAAVGGTPTIKCQASQTIYSYLSWYQQKPGQPPKLLIYEASKLASGVPSRFSGSGSGTDYTLTISDLECADAATYYCQSYHGTASTEYNTFGGGTEVVVRG
notes: rabbit monoclonal, recombinantly produced in HEK cells; full chains
As to B1, the “IC50, inhibition of adhesion of CHO-α11 cells to type I collagen, dose curve” value in test [1] was determined as 0.39 nM. Also, in test [2], the koff was found to be 0.000224 s⁻¹ and the on-rate constant (kon) came to 4.68e+06 M⁻¹ s⁻¹.

B2: 8-J17 (antibody, V domains shown)
VH: QVQLQQSGAELAKPGASVKMSCKASGYTFTNYWMHWVKQRPGQGLEWIGYINPNNGYTEYNQRFKDKATLTADRSSTTAYMQLSSLTSEDSAVYYCARSDIITTDYWGQGTTLTVSS
VL: DVVMTQTPLSLPVSLGDQASISCRSSQSLVYSNGNTYLHWYLQKPGQSPKLLIYKVSNRFSGVPDRFSGSGSGTDFTLKISRVEAEDLGVYFCSQSTHVPWTFGGGTKLEIK
notes: mouse hybridoma IgG
Regarding B2, the binding result in test [3] and in test [4] was “binds” in each case.

Usually koff stands for the rate constant with which the complex falls apart. A word on the kon: it is the rate constant with which the complex forms.

(Values after patent publication US20240317865A1 (MOMENTA PHARMACEUTICALS, published 2024).)
